# Assay results published in patent publication US20220177604A1 (ARGENX, published 2022).
# Changes are numbered by the printed parent chain.
# B1: 18B9His-hIgG1-WT (antibody, V domains shown)
# VH: QVQLVESGGGLVQPGGSLRLSCAASGFTFSSYVMSWVRQAPGKGLEWVSSIYSDGSHTYYADSVKGRFTISRDNAKNTLYLQMNSLKSEDTAVYYCAKNLEHYSGSYYYTDPRYDYWGQGTQVTVSS
# VL: SSALTQPSALSVTLGQTAKITCQGGSLGSSYVHWYQQKPGQAPVLVIHDGDSRPSGIPERFSGSSSGGTATLTISGAQAEDEDDYYCQSADSSGNAVFGGGTHLTVL
# notes: also called VL18B9_Y49H; 18B9-His-WT
# B2: 18B9His-hIgG1-ABDEG (antibody, V domains shown)
# VH: B1 VH
# VL: B1 VL
# notes: also called 18B9His ABDEG; 18B9-hIgG1-ABDEG
# B3: 18E2His2-hIgG1-WT (antibody, V domains shown)
# VH: QLQLVESGGGLVQPGGSLRLSCAASGFTFSSYVMHWVRQAPGKGLEWVSSIYHDGSHTYYADFVKGRFTISRDNAKNTLYLQMNSLKSEDTAVYYCASGTSYSGSYYYTDPFFGSWGQGTQVTVSS
# VL: NFMLTQPSALSVTLGQTARITCQGDRLGSRYIHWYQQKPPQAPVLVIHDDDRRPSGIPERFSGSSSGGTATLTISGAQAEDDGDYYCQSADSSGNPVFGGGTHLTVL
# B4: 18E2His2-hIgG1-ABDEG (antibody, V domains shown)
# VH: B3 VH
# VL: B3 VL
# notes: human IgG1 heavy chain with ABDEG mutations (pUPEX32a); also called 18E2His2-ABDEG
# B5: 13E4-hIgG1-WT (antibody, V domains shown)
# VH: B3 VH with Q1E, H35S
# VL: B1 VL with S1H, L4V, S30N, V32A, H33Y, H48Y, G50D, D83G, S93N
# notes: also called clone 13E4
# B6: 13E4-hIgG1-ABDEG (antibody, V domains shown)
# VH: B3 VH with Q1E, H35S
# VL: B1 VL with S1H, L4V, S30N, V32A, H33Y, H48Y, G50D, D83G, S93N
# notes: human IgG1 heavy chain with ABDEG mutations (pUPEX32a); also called 13E4-ABDEG
# B7: 3D1 human IgG1 mAb (antibody, V domains shown)
# VH: QLQVVESGGGLVQPGGSLRLSCAASGFTFSSYYMSWVRQAPGKGLEWVSSIYSDGRGSKTFYADSVKGRFTISRDNAKNTLYLQMNSLKSEDTAVYFCAKDLLVAARGSMDYWGQGTQVTVSS
# VL: NFMLTQPSAVSVSLEQTARITCQGGTLGSYGAHWYQQKPGQAPVLLIYGDNSRPSGIPERFSGTRSGGTATLTISGAQAEDEADYYCQSFDYSGNAVFGGGTHLTVL
# notes: human IgG1 and human light chain constant domains; also called clone 3D1; WT 3D1
# B8: CL-2C mAb 37 (antibody, V domains shown)
# VH: QVQLVQSGAEVMKPGSSVKVSCKASGYTFSWYHLEWVRQAPGHGLEWMGEIDPGTFTTNYNEKFKARVTFTADTSTSTAYMELSSLRSEDTAVYYCARFSHFSGSNHDYFDYWGQGTLVTVSS
# VL: EIVMTQSPATLSVSPGERATLSCRASQSIGTNIHWYQQKPGQAPRLLIYYASESISGIPARFSGSGSGTEFTLTISSLQSEDFAVYYCQQSWSWPTTFGGGTKVEIK
# notes: also called VKWT + VH33H100CH
# B9: omalizumab variant Fab VH15 / VL3 (Fab, V domains shown)
# VH: EVQLVESGGGLVQPGGSLRLSCAVSGYSITSGHRWEWIRQAPGKGLEWVASIHYDGSTNYNPSVKGRITISRDDSKNTFYLQMNSLRAEDTAVYYCARATHYFGHWHFAVWGQGTLVTVSS
# VL: DIQLTQSPSSLSASVGDRVTITCRASQSVDYDGDSYMNWYQQKPGKAPKLLIEWGSYLRSGVPSRFSGSGSGTDFTLTISSLQPEDFATYYCQQNAEDPYTFGQGTKVEIK
# Assays:
# [1] = biological target: T1, recombinant Motavizumab human IgE (rMota-hIgE) (human, UniProt P01854 1-428); test: ELISA: rMota-hIgE captured on coated RSV-F, washes at pH 7.4, anti-human Fc-HRP; EC50 unit inferred, x axis in pM
# T1 construct: also called Recombinant IgE (argenx)
# T1 sequence (P01854 other isoform, or with tags, fused parts or gaps limits assumed, form in doubt): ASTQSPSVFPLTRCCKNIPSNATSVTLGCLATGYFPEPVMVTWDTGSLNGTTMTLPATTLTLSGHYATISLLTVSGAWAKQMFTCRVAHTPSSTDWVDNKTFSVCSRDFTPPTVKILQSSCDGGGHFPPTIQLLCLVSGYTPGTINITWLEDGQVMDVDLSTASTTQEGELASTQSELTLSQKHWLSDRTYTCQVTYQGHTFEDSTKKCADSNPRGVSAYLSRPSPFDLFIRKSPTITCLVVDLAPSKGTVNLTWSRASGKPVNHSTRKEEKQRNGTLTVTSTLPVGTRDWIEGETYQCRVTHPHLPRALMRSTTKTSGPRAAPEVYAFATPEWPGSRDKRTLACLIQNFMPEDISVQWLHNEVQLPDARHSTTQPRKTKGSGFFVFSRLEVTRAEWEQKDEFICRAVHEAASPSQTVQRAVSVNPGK
# Protocol: (§1) Briefly a Maxisorp plate was coated with recombinant human respiratory syncytial virus protein F (RSV-F) (0.5 μg/mL), then blocked with PBS with 3% BSA and 0.05% Tween. […] After several washing steps at pH 7.4 or pH 5.5, detection of the bound mAbs was carried out with an anti-human Fc-HRP antibody.
# [2] = biological target: T1, recombinant Motavizumab human IgE …; test: ELISA: rMota-hIgE captured on coated RSV-F, washes at pH 5.5, anti-human Fc-HRP; EC50 unit inferred, x axis in pM
# Protocol: as §1
# [3] = biological target: T1, recombinant Motavizumab human IgE …; test: ELISA: rMota-hIgE captured on coated RSV-F, washes at pH 7.4, anti-human Fc-HRP; EC50 unit inferred, x axis in pM; remark: listed apart in the source
# Protocol: as §1
# [4] = biological target: T1, recombinant Motavizumab human IgE …; test: ELISA: rMota-hIgE captured on coated RSV-F, washes at pH 5.5, anti-human Fc-HRP; EC50 unit inferred, x axis in pM; curve reaches only OD450 about 0.85 at about 670 pM
# Protocol: as §1
# [5] = biological target: T1, recombinant Motavizumab human IgE …; test: ELISA: rMota-hIgE captured on coated RSV-F, washes at pH 5.5, anti-human Fc-HRP; EC50 unit inferred, x axis in pM; remark: listed apart in the source
# Protocol: as §1
# [6] = biological target: T1, recombinant Motavizumab human IgE …; test: as above; remark: listed apart in the source
# Protocol: as §1
# [7] = biological target: T1, recombinant Motavizumab human IgE …; test: ELISA: rMota-hIgE captured on coated RSV-F, washes at pH 7.4, anti-human Fc-HRP; EC50 unit inferred, x axis in pM; remark: listed apart in the source
# Protocol: as §1
# [8] = biological target: T2, human immunoglobulin E (hIgE) (human, UniProt P01854-1 1-428); test: competition ELISA
# T2 construct: also called human IgE; Native IgE (Abcam)
# T2 sequence (P01854 whole entry): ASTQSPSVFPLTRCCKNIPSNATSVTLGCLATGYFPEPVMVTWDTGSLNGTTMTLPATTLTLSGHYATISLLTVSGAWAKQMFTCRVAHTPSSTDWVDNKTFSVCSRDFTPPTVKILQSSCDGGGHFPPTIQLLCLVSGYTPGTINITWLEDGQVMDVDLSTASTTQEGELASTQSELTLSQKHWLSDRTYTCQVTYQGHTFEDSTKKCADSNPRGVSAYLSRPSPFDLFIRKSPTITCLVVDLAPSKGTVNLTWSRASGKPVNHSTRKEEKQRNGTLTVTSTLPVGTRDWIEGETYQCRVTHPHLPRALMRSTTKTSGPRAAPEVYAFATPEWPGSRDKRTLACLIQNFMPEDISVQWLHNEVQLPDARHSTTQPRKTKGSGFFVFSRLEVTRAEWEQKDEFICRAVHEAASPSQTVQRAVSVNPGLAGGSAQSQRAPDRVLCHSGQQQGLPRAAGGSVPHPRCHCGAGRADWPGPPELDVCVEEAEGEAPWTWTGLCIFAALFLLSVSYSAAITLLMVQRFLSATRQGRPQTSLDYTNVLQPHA
# Protocol: (§2) The IC50 values of each compound were calculated with a non-linear regression (log(agonist) vs. response Variable slope (four parameters)).
# [9] = biological target: T2, human immunoglobulin E (hIgE); test: SPR competition
# [10] = biological target: T2, human immunoglobulin E (hIgE); test: competition ELISA, biotin-hIgE to coated hFcεRIα, pH 6
# Protocol: as §2
# [11] = biological target: T2, human immunoglobulin E (hIgE); test: competition ELISA, biotin-hIgE to coated hFcεRIα, pH 7.4
# Protocol: as §2
# [12] = biological target: T2, human immunoglobulin E (hIgE); test: SPR competition, hIgE + mAb over hFcεRIα chip, pH 7.4
# Protocol: (§3) For this purpose, a competition approach was set-up. […] The assay was performed in HBS-EP pH7.4 or HBS-EP pH 5.5. Raw data were analyzed via BIA evaluation software with a blank subtraction (2-1). […] The IC50 values of each compound were calculated with a non-linear regression (log(agonist) vs. response Variable slope (four parameters)).
# [13] = biological target: T2, human immunoglobulin E (hIgE); test: SPR competition, hIgE over hFcεRIα chip, pH 7.4
# Protocol: (§4) The assay was performed in HBS-EP pH7.4 or HBS-EP pH 5.5. Raw data were analyzed via BIA evaluation software with a blank subtraction (2-1). […] The IC50 values of each compound were calculated with a non-linear regression (log(agonist) vs. response Variable slope (four parameters)).
# (§5) Raw data were analyzed via BIA evaluation software with a blank subtraction (2-1). […] The IC50 values of each compound, calculated with a non-linear regression (log(agonist) vs. response Variable slope (four parameters)).
# [14] = biological target: T2, human immunoglobulin E (hIgE); test: SPR competition, hIgE over hFcεRIα chip, pH 5.5
# Protocol: as §4, §5
# [15] = biological target: T2, human immunoglobulin E (hIgE); test: SPR competition; remark: listed apart in the source
# Protocol: as §3
# [16] = biological target: T2, human immunoglobulin E (hIgE); test: SPR competition, hIgE + mAb over hFcεRIα chip, pH 6 (text: pH 5.5)
# Protocol: as §3
# [17] = biological target: T2, human immunoglobulin E (hIgE); test: competition ELISA, hIgE to hFcεRIα
# [18] = biological target: T1, recombinant Motavizumab human IgE …; test: hIgE binding ELISA
# Protocol: The ratio of OD450 measured at pH 7.4 versus OD450 measured at pH 6 was calculated for each of the CL-2C antibodies.
# [19] = biological target: T2, human immunoglobulin E (hIgE); test: SPR (Biacore) on hIgE
# Protocol: The ratio of KD measured at pH 5.5 versus KD measured at pH 7.4 was calculated for each of the CL-2C antibodies.
# [20] = biological target: T1, recombinant Motavizumab human IgE …; test: hIgE binding ELISA, pH 5.5
# Protocol: as §1
# [21] = biological target: T1, recombinant Motavizumab human IgE …; test: hIgE binding ELISA; remark: listed apart in the source
# Protocol: as §1
# [22] = biological target: T1, recombinant Motavizumab human IgE …; test: hIgE binding ELISA, pH 7.4
# Protocol: as §1
# [23] = biological target: T2, human immunoglobulin E (hIgE); test: SPR, Fab periplasmic extract, pH 7.4
# [24] = biological target: T1, recombinant Motavizumab human IgE …; test: SPR, Fab periplasmic extract, pH 7.4
binder,measurement,setting,value
B1,EC50,[1],0.142 nM
same,EC50,[2],0.115 nM
B2,EC50,[1],0.119 nM
same,EC50,[2],0.149 nM
B3,EC50,[3],0.365 nM
same,EC50,[4],~4210 nM
B4,EC50,[5],0.616 nM
same,EC50,[3],0.121 nM
B5,EC50,[6],0.0938 nM
same,EC50,[7],0.0913 nM
B6,EC50,[6],0.122 nM
same,EC50,[7],0.11 nM
B7,Ratio pH 6/7.4 (IC50),[8],1.3
same,ratio between IC50 at pH5.5 and pH 7.4,[9],8.6
same,IC50,[10],118 nM
same,IC50,[11],90.3 nM
same,IC50,[12],5.31 nM
same,IC50,[13],1.36 µg/mL
same,IC50,[14],11.7 µg/mL
same,Ratio pH 6/7.4 (IC50),[15],0.8
same,IC50,[16],4.44 nM
B8,IC50,[17],0.483 nM
same,Ratio OD450 pH 7.4/pH 6,[18],10.3
same,KD Ratio pH 5.5/pH 7.4,[19],11.1
same,EC50,[20],0.0373 µg/mL
same,Ratio EC50 pH 5.5/7.4,[21],2.5
same,Ratio EC50 pH 7.4/5.5,[21],0.4
same,EC50,[22],0.0149 µg/mL
B9,Off-rate improvement ratio (against VHWT VLWT),[23],14.8
same,R0 (RU),[23],235 RU
same,koff,[23],0.00035 s⁻¹
same,Off-rate improvement ratio (against VHWT VLWT),[24],18
same,R0 (RU),[24],285 RU
same,koff,[24],0.000269 s⁻¹
